Source: US20230295295A1 (published 2023)
Several values for one entry are separate records, joined by “and”; a condition that tells them apart may be missing. Equal values may be shown once.

Tests used:
[1] = biological target: T1, Recombinant human LAG-3 ECD-His6 (human, UniProt P18627 23-433); experiment: SPR Biacore T100, Anova comparison of kd on LAG-3 ECD-His6
T1 construct: also called LAG-3-His; recombinant human LAG-3-His
T1 sequence: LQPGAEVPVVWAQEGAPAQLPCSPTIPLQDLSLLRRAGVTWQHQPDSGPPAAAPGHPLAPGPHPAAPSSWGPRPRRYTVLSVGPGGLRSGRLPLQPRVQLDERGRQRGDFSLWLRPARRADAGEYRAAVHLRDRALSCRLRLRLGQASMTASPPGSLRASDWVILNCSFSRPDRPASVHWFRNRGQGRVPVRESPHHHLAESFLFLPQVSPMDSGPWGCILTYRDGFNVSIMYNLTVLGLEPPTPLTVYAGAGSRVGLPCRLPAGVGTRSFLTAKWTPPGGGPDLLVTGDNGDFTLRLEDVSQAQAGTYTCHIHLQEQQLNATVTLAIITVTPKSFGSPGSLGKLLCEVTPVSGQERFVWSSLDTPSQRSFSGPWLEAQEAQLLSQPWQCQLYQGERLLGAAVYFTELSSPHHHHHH
Protocol: (§1) Wild type fucosylated and afucosylated antibodies were compared for their ability to bind to recombinant human LAG-3 ECD with a C-terminal His6 (SEQ ID NO:51) using the Biacore® T100 (GE Healthcare®). Protein A was immobilised on a CM5 chip by primary amine coupling. This surface was then used to capture the humanised antibodies. Recombinant human LAG-3 ECD-His6 was then passed over the captured antibodies at 32, 8, 2, 0.5 and 0.125 nM and regeneration was carried out using 50 mM NaOH. The binding curves were double referenced with buffer injection (i.e. 0 nM) and the data was fitted to the T100 analysis software using the 1:1 model. The run was carried out at 25° C., using HBS-EP as the running buffer.
(§2) In order to investigate the statistical significance of this kinetic data, this experiment was repeated 3 times with the same batch of the four antibodies and the chimeric control. KD, ka and kd parameters were each log (base 10) transformed prior to separate statistical analyses. For each parameter, a mixed model analysis of variance (‘Anova’) was performed on transformed data, including terms for Run (random block effect) and Antibody.
(§3) From the Anova, geometric means were predicted for each antibody, along with statistically plausible ranges (95% confidence intervals) for each mean. Planned comparisons of antibodies were performed within the Anova. […]

[2] = biological target: T2, Recombinant baboon LAG-3 ECD-His6 (baboon, UniProt P18627 24-433 (human entry)); experiment: SPR Biacore T100, antibody captured on protein A, LAG-3 ECD-His6 analyte, 37 C, 1:1 model
T2 construct: made in house
T2 chain: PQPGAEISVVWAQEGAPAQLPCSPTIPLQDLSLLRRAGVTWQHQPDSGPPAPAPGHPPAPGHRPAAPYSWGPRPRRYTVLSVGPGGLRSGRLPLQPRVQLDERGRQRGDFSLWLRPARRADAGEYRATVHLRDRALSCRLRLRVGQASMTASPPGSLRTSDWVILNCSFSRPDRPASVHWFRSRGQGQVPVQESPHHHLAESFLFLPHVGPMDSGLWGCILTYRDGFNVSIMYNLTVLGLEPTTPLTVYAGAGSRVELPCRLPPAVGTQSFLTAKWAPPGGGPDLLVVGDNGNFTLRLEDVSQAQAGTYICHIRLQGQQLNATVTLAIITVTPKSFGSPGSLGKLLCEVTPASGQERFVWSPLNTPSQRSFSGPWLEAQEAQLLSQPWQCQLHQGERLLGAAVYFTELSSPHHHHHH
Protocol: (§4) The binding cross reactivity of anti-LAG-3 humanised antibodies for both cynomolgus macaque (cyno) and baboon recombinant LAG-3 ECD-His6 (SEQ ID NOs 52 and 53, respectively) was assessed using the Biacore® T100 (GE Healthcare®).
(§5) Protein A was immobilised on a CM5 chip by primary amine coupling. This surface was then used to capture the humanised antibodies. In-house generated recombinant cynomolgus macaque and baboon LAG-3 ECD-His6 were then passed over the captured antibodies and regeneration was carried out using 50 mM NaOH. LAG-3 ECD-His6 was passed over at 16, 4, 1, 0.25 and 0.0625 nM. The binding curves were double referenced with buffer injection (i.e. 0 nM) and the data was fitted to the T100 analysis software using the 1:1 model. The run was carried out at 37° C. using HBS-EP as the running buffer.

[3] = biological target: T3, Recombinant cynomolgus macaque LAG-3 ECD-His6 (cynomolgus macaque, UniProt P18627 24-433 (human entry)); experiment: as above
T3 construct: made in house; also called cyno LAG-3
T3 chain: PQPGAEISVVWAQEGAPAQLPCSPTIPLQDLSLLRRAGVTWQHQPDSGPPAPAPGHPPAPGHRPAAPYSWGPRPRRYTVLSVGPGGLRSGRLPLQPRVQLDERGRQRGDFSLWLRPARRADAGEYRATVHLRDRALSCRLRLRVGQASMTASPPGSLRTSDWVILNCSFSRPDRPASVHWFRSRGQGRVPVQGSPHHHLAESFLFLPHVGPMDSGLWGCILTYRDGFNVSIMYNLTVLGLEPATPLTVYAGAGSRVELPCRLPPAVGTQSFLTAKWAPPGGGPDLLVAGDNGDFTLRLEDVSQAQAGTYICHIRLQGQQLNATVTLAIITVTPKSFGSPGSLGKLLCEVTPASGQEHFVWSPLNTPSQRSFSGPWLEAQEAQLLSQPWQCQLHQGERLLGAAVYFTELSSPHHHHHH
Protocol: as §4, §5

[4] = biological target: T4, Human LAG-3 expressed on cells (human, UniProt P18627 23-525); experiment: cell-based or functional assay
T4 sequence (looked up): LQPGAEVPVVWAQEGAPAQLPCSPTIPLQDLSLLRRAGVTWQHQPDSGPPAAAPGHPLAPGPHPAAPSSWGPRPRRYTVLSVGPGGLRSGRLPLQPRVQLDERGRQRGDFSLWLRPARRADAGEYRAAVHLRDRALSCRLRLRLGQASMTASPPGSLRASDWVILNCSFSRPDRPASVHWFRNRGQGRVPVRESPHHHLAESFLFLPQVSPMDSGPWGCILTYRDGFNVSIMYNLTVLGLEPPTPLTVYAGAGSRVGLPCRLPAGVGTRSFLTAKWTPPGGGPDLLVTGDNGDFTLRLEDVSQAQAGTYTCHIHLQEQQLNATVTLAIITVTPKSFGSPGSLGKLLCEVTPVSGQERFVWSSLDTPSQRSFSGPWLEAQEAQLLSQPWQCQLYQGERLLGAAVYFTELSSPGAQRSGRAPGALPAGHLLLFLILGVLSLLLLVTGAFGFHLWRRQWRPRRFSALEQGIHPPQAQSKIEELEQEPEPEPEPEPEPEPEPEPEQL

[5] = biological target: T1, Recombinant human LAG-3 ECD-His6; experiment: SPR Biacore T100, antibody captured on protein A, LAG-3 ECD-His6 analyte, 25 C, 1:1 model, geometric mean of 3 runs
Protocol: as §1, §2, §3

[6] = biological target: T1, Recombinant human LAG-3 ECD-His6; experiment: SPR Biacore T100, Anova comparison of KD on LAG-3 ECD-His6
Protocol: as §1, §2, §3

B1: H5L7BW (antibody, human IgG1, kappa, V domains shown)
VH: QVQLQESGPGLVKPSETLSLTCTVSGFSLTAYGVNWIRQPPGKGLEWIGMIWDDGSTDYDSALKSRVTISVDTSKNQFSLKLSSVTAADTAVYYCAREGDVAFDYWGQGTLVTVSS
VL: DIQMTQSPSSLSASVGDRVTITCKSSQSLLNPSNQKNYLAWYQQKPGKAPKLLVYFASTRDSGVPSRFSGSGSGTDFTLTISSLQPEDFATYYCLQHFGTPPTFGQGTKLEIKR
notes: Afucosylated form of H5L7: plasmids encoding H5L7 expressed in the BioWa Potelligent (FUT8 knock-out CHO) cell line; also called afucosylated H5L7BW
- kd ratio (H5L7BW against H5L7) [1]: 1.12
- Kd [2]: 0.024 nM
- Kd [3]: 0.021 nM
- EC50, depletion of antigen specific CD4 T cells by ADCC (primary human T cells, autologous NK cells) [4]: 14 pg/mL and 3.4 ng/mL
- EC50, depletion of antigen specific LAG-3 positive CD8 T cells by ADCC [4]: 0.122 ng/mL and 17.5 ng/mL
- koff [5]: 0.00441 s⁻¹
- KD ratio (H5L7BW against H5L7) [6]: 1.05
